# Assay results from the supplement of paper PMC10724198.
# System: Saccharomyces cerevisiae
# Experiment: protein stability index of tFT-peptide fusion in wild type (PSI (0-1 scale)); higher = more stable (slower turnover)
# Conditions: genetic background: wild type
# 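Further: PSI derived as read-weighted mean over the 8 sorting bins, only variants exceeding 10 total reads kept, mCherry placed adjacent to the peptide and sfGFP distal.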
row,Sequence,protein stability index
1,AETLPMCPLLLR,0.55
2,AHTLPMCPLLLR,0.346
3,AIILPMCPLLLR,0.277
4,AIPLPMCPLLLR,0.28
5,AITLAMCPLLLR,0.418
6,AITLKMCPLLLR,0.296
7,AITLLMCPLLLR,0.37
8,AITLPLCPLLLR,0.19
9,AITLPMCGLLLR,0.243
10,AITLPMCILLLR,0.091
11,AITLPMCMLLLR,0.133
12,AITLPMCPDLLR,0.669
13,AITLPMCPLLDR,0.655
14,AITLPMCPLLFR,0.27
15,AITLPMCPLLLA,0.269
16,AITLPMCPLLLE,0.618
17,AITLPMCPLLLG,0.509
18,AITLPMCPLLLRP,0.281
19,AITLPMCPLLLRW,0.0872
20,AITLPMCPLNLR,0.645
21,AITLPMCPLSLR,0.596
22,AITLPMCPLYLR,0.135
23,AITLPMCPVLLR,0.322

row,Sequence,protein stability index
1,AITLPMCPWLLR,0.652
2,AITLPMMPLLLR,0.187
3,AITLPMPPLLLR,0.257
4,AITLPMSPLLLR,0.276
5,ALVSLPILLFFR,0.0758
6,ARTLPMCPLLLR,0.311
7,ASLRVLLPLYFR,0.285
8,CDVSLPILLFFR,0.0512
9,CFVSLPILLFFR,0.0595
10,CLKSLPILLFFR,0.083
11,CLLSLPILLFFR,0.0527
12,CLVALPILLFFR,0.0608
13,CLVGLPILLFFR,0.0666
14,CLVPLPILLFFR,0.0703
15,CLVSLAILLFFR,0.248
16,CLVSLEILLFFR,0.211
17,CLVSLIILLFFR,0.298
18,CLVSLPILLEFR,0.518
19,CLVSLPILLFFE,0.454
20,CLVSLPILLFFG,0.447
21,CLVSLPILLFFH,0.204
22,CLVSLPILLFFI,0.197
23,CLVSLPILLFFRT,0.0656

row,Sequence,protein stability index
1,CLVSLPILLFFRY,0.0612
2,CLVSLPILLFGR,0.492
3,CLVSLPILLFTR,0.314
4,CLVSLPILLTFR,0.0802
5,CLVSLPINLFFR,0.0948
6,CLVSLPIQLFFR,0.0792
7,CLVSLPITLFFR,0.104
8,CLVSLRILLFFR,0.152
9,CLVSTPILLFFR,0.132
10,PSLAASFWRVVH,0.448
11,PSLAASFWRVVI,0.263
12,PSLAASFWRWVG,0.145
13,PSLAASFWSVVG,0.694
14,PSLAASFWWVVG,0.582
15,PSLAASYWRVVG,0.157
16,PSLAFSFWRVVG,0.111
17,PSLCASFWRVVG,0.129
18,PSLLASFWRVVG,0.145
19,PSMAASFWRVVG,0.126
20,PSQAASFWRVVG,0.161
21,PSYAASFWRVVG,0.131
22,RDKRNHLIKLLN,0.1
23,RKILRQKMNHQN,0.162

row,Sequence,protein stability index
1,RLIKPLPVQFLN,0.0432
2,RLIQPLIVQFLN,0.0468
3,RLIQPLMVQFLN,0.0988
4,RLIQPLPEQFLN,0.29
5,RLIQPLPVDFLN,0.716
6,RLIQPLPVIFLN,0.138
7,RLIQPLPVNFLN,0.0915
8,RLIQPLPVPFLN,0.313
9,RLIQPLPVQFLG,0.35
10,RLIQPLPVQFLH,0.301
11,RLIQPLPVQFLK,0.613
12,RLIQPLPVQFLM,0.13
13,RLIQPLPVQFLNA,0.545
14,RLIQPLPVQFLNY,0.433
15,RLIQPLPVQKLN,0.0688
16,RLIQPNPVQFLN,0.0748
17,RLITPLPVQFLN,0.0429
18,RMIQPLPVQFLN,0.045
19,RTSCGYKFRTNN,0.188
20,SLIQPLPVQFLN,0.0779
21,TRGAVGGWRLVG,0.162
22,VPGAVGGWRLVG,0.139
23,VRGAVGGIRLVG,0.589

row,Sequence,protein stability index
1,VRGAVGGRRLVG,0.641
2,VRGAVGGWELVG,0.551
3,VRGAVGGWRLDG,0.648
4,VRGAVGGWRLVA,0.151
5,VRGAVGGWRLVD,0.615
6,VRGAVGGWRLVGN,0.639
7,VRGAVGGWRLVGR,0.676
8,VRGAVGGWRLVH,0.233
9,VRGAVGGWRRVG,0.163
10,VRGAVGGWRSVG,0.342
11,VRGAVGGWYLVG,0.603
12,VRGAVGQWRLVG,0.147
13,VRGAVHGWRLVG,0.155
14,VRGAVSGWRLVG,0.145
15,VRGEVGGWRLVG,0.119
16,VRGFVGGWRLVG,0.145
17,VRGNVGGWRLVG,0.109
18,VRGPVGGWRLVG,0.181
19,VRGVVGGWRLVG,0.176
20,VRLAVGGWRLVG,0.131
21,VTGAVGGWRLVG,0.141
22,VVVYLSCVACIN,0.0234
23,YSMRWTFRYWVN,0.042
